Data on one molecule can be found in patent US20240269315A1, “DRUG CONJUGATE AND USE THEREOF” (priority 2021, published 2024).

The target of the test is T1, Trop2 (UniProt P09758 27-323, limits assumed).
T1 sequence (looked up): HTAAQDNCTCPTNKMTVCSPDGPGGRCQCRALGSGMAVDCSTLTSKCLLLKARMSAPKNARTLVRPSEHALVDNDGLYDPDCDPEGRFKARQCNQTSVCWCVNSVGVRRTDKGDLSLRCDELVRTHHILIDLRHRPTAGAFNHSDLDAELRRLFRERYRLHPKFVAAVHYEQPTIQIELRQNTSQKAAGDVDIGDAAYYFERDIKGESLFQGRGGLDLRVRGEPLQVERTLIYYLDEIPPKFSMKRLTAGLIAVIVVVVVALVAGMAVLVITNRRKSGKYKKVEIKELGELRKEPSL
As to the kind of experiment: cell-based or functional assay.

B1: ADC4 (antibody, human IgG1, kappa, V domains shown)
VH: QVQLQQSGSELKKPGASVKVSCKASGYTFTNYGMNWVKQAPGQGLKWMGWINTYTGEPTYTDDFKGRFAFSLDTSVSTAYLQISSLKADDTAVYFCARGGFGSSYWYFDVWGQGTLVTVSS
VL: DIQLTQSPSSLSASVGDRVSITCKASQDVSIAVAWYQQKPGKAPKLLIYSASYRYTGVPDRFSGSGSGTDFTLTISSLQPEDFAVYYCQQHYITPLTFGAGTKVEIKR
modifications: CB07-Exatecan on cysteine thiols after TCEP reduction; positions not given; DAR (p) 4.2 per antibody
With B1, the “EC50 (ng/mL), growth inhibition of Trop2 positive MDA-MB-453 cells (CCK-8, 120 h)” value was 640 ng/mL; the “EC50 (ng/mL), growth inhibition of Trop2 positive MDA-MB-468 cells (CCK-8, 120 h)” value worked out at 158 ng/mL; the “EC50 (ng/mL), growth inhibition of Trop2 positive MX-1 cells (CCK-8, 120 h)” value was 233 ng/mL.
